Source: patent publication US7867500B2, “Cofactor that modulates steroid receptor activities” (The United States of America as represented by the …, priority 2004, dated 2011)
One block for each molecule: values may come before it.

Legend:
GR = molecular target: T1, GR (Rattus norvegicus, UniProt P06536); assay: Mammalian two-hybrid assay in CV-1 cells with VP16/GR; format: cell-based; settings: VP16/GR ± 1 μM Dex
T1 construct: plus VP16 fused to the indicated full length receptors; expressed in transfected cells; host or cells: CV-1
T1 sequence (P06536 1-795): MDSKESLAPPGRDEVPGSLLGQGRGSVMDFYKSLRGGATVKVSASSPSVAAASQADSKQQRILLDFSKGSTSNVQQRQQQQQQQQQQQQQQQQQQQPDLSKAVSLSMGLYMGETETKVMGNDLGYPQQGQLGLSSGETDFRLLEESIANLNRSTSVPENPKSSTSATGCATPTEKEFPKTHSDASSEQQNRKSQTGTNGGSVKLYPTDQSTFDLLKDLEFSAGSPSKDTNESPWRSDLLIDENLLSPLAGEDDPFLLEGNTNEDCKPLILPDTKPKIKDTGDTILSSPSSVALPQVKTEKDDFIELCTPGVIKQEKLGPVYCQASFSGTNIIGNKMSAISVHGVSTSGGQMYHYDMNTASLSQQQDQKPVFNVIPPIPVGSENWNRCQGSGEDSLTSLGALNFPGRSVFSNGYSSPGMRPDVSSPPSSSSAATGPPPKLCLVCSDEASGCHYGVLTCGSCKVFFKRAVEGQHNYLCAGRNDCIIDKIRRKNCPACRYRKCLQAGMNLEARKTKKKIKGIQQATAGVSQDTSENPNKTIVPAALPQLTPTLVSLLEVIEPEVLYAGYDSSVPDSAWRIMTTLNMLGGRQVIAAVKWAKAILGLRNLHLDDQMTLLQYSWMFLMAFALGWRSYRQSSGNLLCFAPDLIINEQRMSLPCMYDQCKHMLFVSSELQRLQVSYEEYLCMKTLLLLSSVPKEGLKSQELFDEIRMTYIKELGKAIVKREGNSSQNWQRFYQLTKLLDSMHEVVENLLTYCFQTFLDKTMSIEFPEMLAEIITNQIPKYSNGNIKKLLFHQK
Text: FIGS. 6A and 6B illustrate the domains of STAMP that interact with TIF2.4 (FIG. 6A) and GR (FIG. 6B) in the mammalian two-hybrid assay. […] These CV-1 cells were also transfected with GAL fused to the indicated segments of STAMP along with the FRLuc reporter and Renilla control plasmids. After determining the relative luciferase activities as described in FIG. 2B and 2C, the average values±S.E.M. from 2-5 experiments were plotted. The average fold increase for VP16/TIF2.4 with GAL/STAMP(623-834) in FIG. 6A was 11.0±3.0 (SEM, n=5) above the VP16 control. The values in parentheses above the data bars in FIG. 6B indicate the fold increased interaction ±1 μM Dex.
These assays were conducted as described (He et al., 2002). In particular, the recommended procedure for the Mammalian Matchmaker two-hybrid assay kit (Clontech) was modified slightly by changing from a chloramphenicol acetyltransferase reporter to a Luciferase Reporter pFRLuc (Stratagene), which is under the control of five repeats of the upstream activating sequence for the binding of GAL4.

TIF2.4 = molecular target: T2, TIF2.4 (Homo sapiens, UniProt Q15596); assay: Cell-free pulldown of [35S]-labeled STAMP constructs by GST/TIF2.4; format: binding; settings: compared with GST itself
T2 sequence (Q15596 624-1010 limits assumed): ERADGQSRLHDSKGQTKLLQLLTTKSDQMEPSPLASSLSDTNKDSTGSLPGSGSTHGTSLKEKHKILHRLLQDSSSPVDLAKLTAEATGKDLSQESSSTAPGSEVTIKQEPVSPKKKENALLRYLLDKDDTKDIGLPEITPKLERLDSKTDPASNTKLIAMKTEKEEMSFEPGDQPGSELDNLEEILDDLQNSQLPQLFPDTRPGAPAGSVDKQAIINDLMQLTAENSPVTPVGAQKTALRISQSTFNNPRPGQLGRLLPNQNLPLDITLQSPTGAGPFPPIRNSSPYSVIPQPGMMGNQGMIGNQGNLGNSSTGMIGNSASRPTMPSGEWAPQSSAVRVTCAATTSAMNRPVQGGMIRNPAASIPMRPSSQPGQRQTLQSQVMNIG
Text: FIGS. 7A and 7B illustrate the domains of STAMP that bind to TIF2.4 (FIG. 7A) and GR (FIG. 7B) in cell-free pulldown assays. Bacterially expressed GST-chimeras (GST/TIF2.4 in FIG. 7A and GST/STAMP segments in FIG. 7B) were immobilized on glutathione-Sepharose beads. The [^35S]methionine labeled STAMP fragments (FIG. 7A) or wild type GR (FIG. 7B) that were retained on the matrix by binding to the GST chimeras were separated on SDS PAGE gels and visualized by autoradiography. Specific binding was seen as when the GST/TIF2.4 or GST/STAMP bands were darker than the GST control bands. […] Similar results were obtained in a second experiment.
Template DNA plasmids (1 μg), 40 μl of Promega TNT (SP6) quick coupled transcription/translation system master mixture, and 2 μl of [^35S]methionine (Amersham Biosciences) were brought up to a total volume of 50 μl with H2O and incubated at 30° C. for 90 min according to the manufacturer's (Promega) recommendations. If hormone stimulation is needed, hormones (Dex, etc) were added into the transcription-translation reaction during the 30° C. incubation to both increase the stability of the synthesized GR and to cause activation of the GR-steroid complexes.
These assays were conducted generally as described (He et al., 2002). Sonicated bacterial lysates (1 ml) containing overexpressed GST, GST/TIF2.4, or GST/STAMP-956C were incubated with 160 μl of glutathione-Sepharose 4B beads for 1 hr at 0° C. The mixture was centrifuged (12,000×g), the supernatant was discarded, and the pellet was washed with phosphate-buffered saline (3×1 ml). Each 20-μl sample of immobilized GST or GST-chimera was then incubated overnight with 10 μl of ^35S-labeled in vitro translation product. The matrix was washed with phosphate-buffered saline (4×1 ml). The immobilized proteins were removed from the beads by heating at 90° C. for 5 min in 20 μl of 2×SDS loading buffer. The proteins were separated on 8-10% SDS-PAGE gels and detected by radio-autoradiography.

interaction with GR (GR): largest agonist-induced changes
B1: STAMP834C: STAMP fragment amino acids 834-1277, receptor interaction domain (RID) (protein)
chain: GDHPETIMEEVKIKPPKQQQTTEIHSDKLSRFTTSAEKEAKLVYSNSSSGPTATLQKIPNTHLSSVTTSDLSPGPCHHSSLSQIPSAIPSMPHQPTILLNTVSASASPCLHPGAQNIPSPTGLPRCRSGSHTIGPFSSFQSAAHIYSQKLSRPSSAKAGSCYLNKHHSGIAKTQKEGEDASLYSKRYNQSMVTAELQRLAEKQAARQYSPSSHINLLTQQVTNLNLATGIINRSSASAPPTLRPIISPSGPTWSTQSDPQAPENHSSSPGSRSLQTGGFAWEGEVENNVYSQATGVVPQHKYHPTAGSYQLQFALQQLEQQKLQSRQLLDQSRARHQAIFGSQTLPNSNLWTMNNGAGCRISSATASGQKPTTLPQKVVPPPSSCASLVPKPPPNHEQVLRRATSQKASKGSSAEGQLNGLQSSLNPAASVPITSSTDPAHTKI
binding to GST/TIF2.4 (TIF2.4): neither the amino terminal (N623) nor the C-terminal (834C) fragments exhibit significantly more binding to GST/TIF2.4 than to GST itself

interaction with GR (GR): relative inactivity
binding to GST/TIF2.4 (TIF2.4): strong binding
B2: 6-6CL1: STAMP fragment amino acids 623-834, coactivator interaction domain (CID) (protein)
chain: ENTPKENSMKVREWNNKGGHCCKLETQELEPKFNLMQILQDNGNLSKMQARIAFSAYLQHVQIRLMKDSGGQTFSASWAAKEDEQMELVVRFLKRASNNLQHSLRMVLPSRRLALLERRRILAHQLGDFIIVYNKETEQMAEKKSKKKVEEEEEDGVNMENFQEFIRQASEAELEEVLTFYTQKNKSASVFLGTHSKISKNNNNYSDSGAKG

B3: STAMP: SRC-1 and TIF2 Associated Modulatory Protein, 1277 amino acid human polypeptide, expressed from transfected plasmid (protein)
chain: MARDLEETASSSEDEEVISQEDHPCIMWTGGCRRIPVLVFHADAILTKDNNIRVIGERYHLSYKIVRTDSRLVRSILTAHGFHEVHPSSTDYNLMWTGSHLKPFLLRTLSEAQKVNHFPRSYELTRKDRLYKNIIRMQHTHGFKVFHILPQTFLLPAEYAEFCNSYSKDRGPWIVKPVASSRGRGVYLINNPNQISLEENILVSRYINNPLLIDDFKFDVRLYVLVTSYDPLVIYLYEEGLARFATVRYDQGAKNIRNQFMHLTNYSVNKKSGDYVSCDDPEVEDYGNKWSMSAMLRYLKQEGRDTTALMAHVEDLIIKTIISAELAIATACKTFVPHRSSCFELYGFDVLIDSTLKPWLLEVNLSPSLACDAPLDLKIKASMISDMFTVVGFVCQDPAQRASTRPIYPTFESSRRNPFQKPQRCRPLSASDAEMKNLVGSAREKGPGKLGGSVLGLSMEEIKVLRRVKEENDRRGGFIRIFPTSETWEIYGSYLEHKTSMNYMLATRLFQDRMTADGAPELKIESLNSKAKLHAALYERKLLSLEVRKRRRRSSRLRAMRPKYPVITQPAEMNVKTETESEEEEEVALDNEDEEQEASQEESAGFLRENQAKYTPSLTALVENTPKENSMKVREWNNKGGHCCKLETQELEPKFNLMQILQDNGNLSKMQARIAFSAYLQHVQIRLMKDSGGQTFSASWAAKEDEQMELVVRFLKRASNNLQHSLRMVLPSRRLALLERRRILAHQLGDFIIVYNKETEQMAEKKSKKKVEEEEEDGVNMENFQEFIRQASEAELEEVLTFYTQKNKSASVFLGTHSKISKNNNNYSDSGAKGDHPETIMEEVKIKPPKQQQTTEIHSDKLSRFTTSAEKEAKLVYSNSSSGPTATLQKIPNTHLSSVTTSDLSPGPCHHSSLSQIPSAIPSMPHQPTILLNTVSASASPCLHPGAQNIPSPTGLPRCRSGSHTIGPFSSFQSAAHIYSQKLSRPSSAKAGSCYLNKHHSGIAKTQKEGEDASLYSKRYNQSMVTAELQRLAEKQAARQYSPSSHINLLTQQVTNLNLATGIINRSSASAPPTLRPIISPSGPTWSTQSDPQAPENHSSSPGSRSLQTGGFAWEGEVENNVYSQATGVVPQHKYHPTAGSYQLQFALQQLEQQKLQSRQLLDQSRARHQAIFGSQTLPNSNLWTMNNGAGCRISSATASGQKPTTLPQKVVPPPSSCASLVPKPPPNHEQVLRRATSQKASKGSSAEGQLNGLQSSLNPAASVPITSSTDPAHTKI
binding to GST/TIF2.4 (TIF2.4): weak interaction
